# In patent US11512128B2, “VEGF/DLL4 binding agents and uses thereof” (MEREO BIOPHARMA 5, INC., priority 2011, dated 2022):
# Residue numbers refer to the chain shown, from its start.
# T1: mouse VEGF165 (Mus musculus, UniProt Q00731)
# T1 sequence (Q00731 27-190 isoform Q00731-2): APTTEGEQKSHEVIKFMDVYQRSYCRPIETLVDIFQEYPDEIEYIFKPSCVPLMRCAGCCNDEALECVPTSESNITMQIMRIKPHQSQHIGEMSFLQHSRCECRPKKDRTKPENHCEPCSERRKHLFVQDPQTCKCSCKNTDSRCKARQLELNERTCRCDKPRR
# B1: 219R45-MB-21R79: anti-VEGF/anti-DLL4 monovalent/bispecific antibody, heavy chains SEQ ID NO:7 and 6, light chains SEQ ID NO:8 (antibody)
# heavy 1: QVQLVQSGAEVKKPGASVKVSCKASGYTFTNYWMHWVRQAPGQGLEWMGDINPSNGRTSYKEKFKRRVTLSVDKSSSTAYMELSSLRSEDTAVYFCTIHYDDKYYPLMDYWGQGTLVTVSSASTKGPSVFPLAPCSRSTSESTAALGCLVKDYFPEPVTVSWNSGALTSGVHTFPAVLQSSGLYSLSSVVTVPSSNFGTQTYTCNVDHKPSNTKVDKTVERKCCVECPPCPAPPVAGPSVFLFPPKPKDTLMISRTPEVTCVVVDVSHEDPEVQFNWYVDGVEVHNAKTKPREEQFNSTFRVVSVLTVVHQDWLNGKEYKCKVSNKGLPAPIEKTISKTKGQPREPQVYTLPPSREKMTKNQVSLTCLVKGFYPSDIAVEWESNGQPENNYKTTPPMLKSDGSFFLYSKLTVDKSRWQQGNVFSCSVMHEALHNHYTQKSLSLSPGK
# heavy 2: QVQLVQSGAEVKKPGASVKISCKASGYSFTAYYIHWVKQAPGQGLEWIGYIANYNRATNYNQKFKGRVTFTTDTSTSTAYMELRSLRSDDTAVYYCARDYDYDVGMDYWGQGTLVTVSSASTKGPSVFPLAPCSRSTSESTAALGCLVKDYFPEPVTVSWNSGALTSGVHTFPAVLQSSGLYSLSSVVTVPSSNFGTQTYTCNVDHKPSNTKVDKTVERKCCVECPPCPAPPVAGPSVFLFPPKPKDTLMISRTPEVTCVVVDVSHEDPEVQFNWYVDGVEVHNAKTKPREEQFNSTFRVVSVLTVVHQDWLNGKEYKCKVSNKGLPAPIEKTISKTKGQPREPQVYTLPPSREEMTKNQVSLTCLVEGFYPSDIAVEWESNGQPENNYKTTPPMLDSDGSFFLYSELTVDKSRWQQGNVFSCSVMHEALHNHYTQKSLSLSPGK
# light: DIVMTQSPDSLAVSLGERATISCRASESVDNYGISFMKWFQQKPGQPPKLLIYAASNQGSGVPDRFSGSGSGTDFTLTISSLQAEDVAVYYCQQSKEVPWTFGGGTKVEIKRTVAAPSVIFPPSDEQLKSGTASVVCLLNNFYPREAKVQWKVDNALQSGNSQESVTEQDSKDSTYSLSSTLTLSKADYEKHKVYACEVTHQGLSSPVTKSFNRGEC
# modifications: 21R79 Heavy chain without predicted signal sequence; Light chain without predicted signal sequence
# B2: 219R45-MB-21M18: anti-VEGF/anti-DLL4 monovalent/bispecific antibody, heavy chains SEQ ID NO:7 and 5, light chains SEQ ID NO:8 (antibody)
# heavy 1: B1 heavy 1
# heavy 2: B1 heavy 2 with A52S, N53S, R56G
# light: B1 light
# modifications: 21R79 Heavy chain without predicted signal sequence; 21M18 Heavy chain without predicted signal sequence; Light chain without predicted signal sequence
# B3: 21M18: anti-DLL4 antibody, parental antibody (Hoey et al., 2009; U.S. Pat. No. 7,750,124) (antibody, V domains shown)
# VH: QVQLVQSGAEVKKPGASVKISCKASGYSFTAYYIHWVKQAPGQGLEWIGYISSYNGATNYNQKFKGRVTFTTDTSTSTAYMELRSLRSDDTAVYYCARDYDYDVGMDYWGQGTLVTVSS
# VL: DIVMTQSPDSLAVSLGERATISCRASESVDNYGISFMKWFQQKPGQPPKLLIYAASNQGSGVPDRFSGSGSGTDFTLTISSLQAEDVAVYYCQQSKEVPWTFGGGTKVEIK
# What was measured:
# [1] = test system: DLL4-induced Notch signaling; assay: DLL4-induced Notch signaling luciferase reporter assay in Notch2-expressing PC3 cells; format: cell-based; conditions: coated human DLL4 100 ng/well, antibody 20 to 0.064 ug/ml
# Description: FIG. 4. Inhibition of DLL4-induced Notch signaling by anti-VEGF/anti-DLL4 bispecific antibodies. Luciferase activity was measured using a dual luciferase assay kit with firefly luciferase activity normalized to Renilla luciferase activity. 219R45-MB-21M18 (-●-); 219R45-MB-21R79 (-▪-); 21M18 (-∘-); 21R79 (-□-).
# Human PC3 cells were transfected with an expression vector encoding a full-length human Notch2 receptor and a firefly luciferase reporter vector (8× CBF-luciferase reporter) that is responsive to Notch signaling. The cells were also transfected with a Renilla luciferase reporter (Promega, Madison, Wis.) as an internal control for transfection efficiency. Purified human DLL4 protein was coated onto 96-well plates at 100 ng/well and Notch2-expressing PC3-luc cells were added to the wells. Anti-VEGF/anti-DLL4 bispecific antibodies 219R45-MB-21M18, 219R45-MB-21R79, parental anti-DLL4 antibodies 21M18, 21R79 or a control antibody LZ1 were serially diluted 5-fold from 20 ug/ml to 0.064 ug/ml, added to the appropriate wells, and incubated overnight. Luciferase activity was determined using a dual luciferase assay kit (Promega, Madison, Wis.) with firefly luciferase activity normalized to Renilla luciferase activity.
# OMP-C8 colon tumor = assay: Tumorigenicity of OMP-C8 colon tumors after treatment (serial transplantation); format: in vivo, NOD/SCID mice; conditions: 150 cells from treated tumors transplanted, day 68; for tumor growth frequency, single agents: without irinotecan combination
# Description: FIG. 10. Tumorigenicity of […] colon tumor cells after treatment with anti-VEGF/anti-DLL4 bispecific antibodies. Tumors from mice treated with control antibody, anti-hDLL4 antibody 21M18, anti-VEGF antibody bevacizumab, a combination of 21M18 and bevacizumab, or anti-VEGF/anti-DLL4 bispecific antibodies 219R45-MB-21M18 or 219R45-MB-21R79 with or without irinotecan were processed to single cell suspensions, and serially transplanted into mice. 150 cells from each treatment group were injected subcutaneously into NOD/SCID mice. Tumors were allowed to grow with no treatment. Data are shown as tumor volume (mm^3) on day 68.
# Single cell suspensions of OMP-C8 colon tumor xenografts (20,000 cells) were injected subcutaneously into the flanks of 6-8 week old NOD/SCID mice. Tumors were allowed to grow for 33 days until they reached an average volume of 300 mm^3. The mice were randomized (n=5 per group) and treated with anti-DLL4 antibody 21M18, anti-VEGF antibody bevacizumab, a combination of antibodies 21M18 and bevacizumab, anti-VEGF/anti-DLL4 bispecific antibody 219R45-MB-21M18, anti-VEGF/anti-DLL4 bispecific antibody 219R45-MB-21R79, or control antibody, either in combination with irinotecan or without irinotecan. Antibodies and irinotecan were dosed weekly by injection into the intraperitoneal cavity. Antibodies 21M18 and bevacizumab were dosed at 7.5 mg/kg, bispecific antibodies 219R45-MB-21M18 and 219R45-MB-21R79 were dosed at 15 mg/kg, and irinotecan was dosed at 45 mg/kg. Tumors were harvested after 4 weeks, processed into single cell suspensions, and the human tumor cells were isolated. 150 tumor cells from each experimental group were injected subcutaneously into a new cohort of mice (n=10 per group) and tumors were allowed to grow without treatment. Tumor growth was monitored and tumor volumes were measured with electronic calipers.
# [2] = test system: OMP-PN8 pancreatic tumor cells; assay: Tumorigenicity of OMP-PN8 pancreatic tumor cells after treatment (serial transplantation); format: in vivo, NOD/SCID mice; conditions: 90 cells from treated tumors transplanted, day 55, no treatment; 21M18, bevacizumab 15 mg/kg, bispecifics 30 mg/kg, gemcitabine 70 mg/kg, four weeks
# Description: FIG. 6. Tumorigenicity of pancreatic tumor cells after treatment with anti-VEGF/anti-DLL4 bispecific antibodies. OMP-PN8 tumor cells from mice treated with control antibody, anti-hDLL4 antibody 21M18, anti-VEGF antibody bevacizumab, or anti-VEGF/anti-DLL4 bispecific antibodies 219R45-MB-21M18 or 219R45-MB-21R79 with or without gemcitabine were processed to single cell suspensions, and serially transplanted into mice. 90 cells from each treatment group were injected subcutaneously into NOD/SCID mice. Tumors were allowed to grow with no treatment. Data is shown as tumor volume (mm^3) on day 55. Tumor frequency is shown as number of tumors over total number of mice injected in each group.
# Mice bearing OMP-PN8 pancreatic tumors were treated with control antibody (15 mg/kg), anti-hDLL4 antibody 21M18 (15 mg/kg), anti-VEGF antibody bevacizumab (15 mg/kg), or anti-VEGF/anti-DLL4 bispecific antibodies 219R45-MB-21M18 or 219R45-MB-21R79 (30 mg/kg) with or without gemcitabine (70 mg/kg). Following four weeks of treatment, tumors were harvested, processed to single cell suspensions and the human tumor cells were purified by immunomagnetic depletion of murine cells. 90 human tumor cells from each treatment group were transferred to a new cohort of mice (n=10 mice/group). Tumors were allowed to grow for 55 days without any treatment and tumor volumes were measured with electronic calipers.
# mouse DLL4-Fc = assay: Biacore binding affinity (KD) to mouse DLL4; conditions: Biacore 2000, mouse DLL4-Fc on CM5 chip; read-out: KD mDLL4
# Description: (§1) The KDs of parental antibodies anti-VEGF 219R45 (IgG format), anti-DLL4 21R79 (IgG format), anti-DLL4 21M18 (IgG format) and bispecific antibodies 219R45-MB-21M18 and 219R45-MB-21R79 were determined using a Biacore 2000 system from Biacore LifeSciences (GE Healthcare). Recombinant human DLL4-Fc or mouse DLL4-Fc proteins were immobilized on CM5 carboxyl chips using standard amine-based chemistry (NHS/EDC) and blocked with ethanolamine. Recombinant human VEGF165 or mouse VEGF165 were biotinylated and immobilized on streptavidin chips. The antibodies were serially diluted 2-fold from 100 nM to 0.78 nM in HBS-P (0.01M HEPES pH7.4, 0.15M NaCl, 0.005% v/v Polysorbate 20). For each antibody, all 8 dilutions were sequentially injected over a specific chip. Kinetic data were collected over time and were fit using the simultaneous global fit equation to yield affinity constants (KD values) for each bispecific antibody.
# mouse VEGF165 = target: T1, mouse VEGF165; assay: Biacore binding affinity (KD) to mouse VEGF
# Description: as §1
# Chain of mouse DLL4-Fc (Q9JI71 27-519 limits assumed): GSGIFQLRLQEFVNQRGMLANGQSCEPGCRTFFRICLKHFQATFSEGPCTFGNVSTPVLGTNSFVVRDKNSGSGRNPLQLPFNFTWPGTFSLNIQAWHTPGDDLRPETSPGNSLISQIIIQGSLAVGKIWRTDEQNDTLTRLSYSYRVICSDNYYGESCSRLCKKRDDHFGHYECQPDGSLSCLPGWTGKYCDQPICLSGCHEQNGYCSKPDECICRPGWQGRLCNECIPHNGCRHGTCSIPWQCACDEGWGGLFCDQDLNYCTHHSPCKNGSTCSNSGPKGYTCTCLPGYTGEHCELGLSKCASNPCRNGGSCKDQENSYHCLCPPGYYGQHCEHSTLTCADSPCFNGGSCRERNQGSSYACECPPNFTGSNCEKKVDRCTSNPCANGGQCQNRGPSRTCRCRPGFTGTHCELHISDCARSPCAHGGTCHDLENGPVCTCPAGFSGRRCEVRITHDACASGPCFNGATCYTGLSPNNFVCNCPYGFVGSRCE
Molecule,inhibition of DLL4-induced Notch signaling [1],"tumor growth frequency, single agents (OMP-C8 colon tumor)",tumor growth frequency (mice with tumors) [2],Kd (mouse DLL4-Fc) [nM],binding to mouse VEGF (in words) (mouse VEGF165),"tumor growth frequency, combination of irinotecan and antibodies (OMP-C8 colon tumor; with irinotecan 45 mg/kg)","Kd (mouse VEGF165; Biacore 2000, biotinylated mouse VEGF165 on streptavidin chip, read-out: KD mVEGF) [nM]"
B1,inhibited DLL4-induced Notch signaling,reduced tumor growth frequency,4 out of 10,> 100,bind mouse VEGF,,
B2,inhibited DLL4-induced Notch signaling only at high antibody concentrations,reduced tumor growth frequency,5 out of 10,> 100,bind mouse VEGF,had the greatest effect in reducing tumor growth frequency,
B3,inhibited DLL4-induced Notch signaling,reduced tumor growth frequency,5 out of 10,> 100,,,> 100
